T1: Ple E12–24 (M546–E1128) (rat, UniProt P30427 546-1128)
T1 sequence (looked up): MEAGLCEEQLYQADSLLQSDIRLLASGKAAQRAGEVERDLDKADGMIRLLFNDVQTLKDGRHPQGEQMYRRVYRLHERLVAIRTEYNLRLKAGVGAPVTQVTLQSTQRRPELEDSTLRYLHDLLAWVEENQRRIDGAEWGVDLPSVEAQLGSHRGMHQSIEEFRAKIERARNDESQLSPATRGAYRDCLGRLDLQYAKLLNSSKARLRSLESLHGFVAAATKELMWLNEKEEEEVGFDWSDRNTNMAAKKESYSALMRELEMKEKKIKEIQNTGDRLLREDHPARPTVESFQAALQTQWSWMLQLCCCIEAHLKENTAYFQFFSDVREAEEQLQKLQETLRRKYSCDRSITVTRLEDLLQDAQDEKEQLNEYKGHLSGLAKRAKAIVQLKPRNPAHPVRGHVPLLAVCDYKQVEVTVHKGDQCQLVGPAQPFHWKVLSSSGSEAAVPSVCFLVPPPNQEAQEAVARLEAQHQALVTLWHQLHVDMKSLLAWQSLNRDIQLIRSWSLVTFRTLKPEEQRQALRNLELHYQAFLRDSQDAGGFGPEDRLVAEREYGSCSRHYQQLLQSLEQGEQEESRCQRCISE

T2: Ple R4–C (L3850–A4687) (rat, UniProt P30427 3850-4687)
T2 sequence (looked up): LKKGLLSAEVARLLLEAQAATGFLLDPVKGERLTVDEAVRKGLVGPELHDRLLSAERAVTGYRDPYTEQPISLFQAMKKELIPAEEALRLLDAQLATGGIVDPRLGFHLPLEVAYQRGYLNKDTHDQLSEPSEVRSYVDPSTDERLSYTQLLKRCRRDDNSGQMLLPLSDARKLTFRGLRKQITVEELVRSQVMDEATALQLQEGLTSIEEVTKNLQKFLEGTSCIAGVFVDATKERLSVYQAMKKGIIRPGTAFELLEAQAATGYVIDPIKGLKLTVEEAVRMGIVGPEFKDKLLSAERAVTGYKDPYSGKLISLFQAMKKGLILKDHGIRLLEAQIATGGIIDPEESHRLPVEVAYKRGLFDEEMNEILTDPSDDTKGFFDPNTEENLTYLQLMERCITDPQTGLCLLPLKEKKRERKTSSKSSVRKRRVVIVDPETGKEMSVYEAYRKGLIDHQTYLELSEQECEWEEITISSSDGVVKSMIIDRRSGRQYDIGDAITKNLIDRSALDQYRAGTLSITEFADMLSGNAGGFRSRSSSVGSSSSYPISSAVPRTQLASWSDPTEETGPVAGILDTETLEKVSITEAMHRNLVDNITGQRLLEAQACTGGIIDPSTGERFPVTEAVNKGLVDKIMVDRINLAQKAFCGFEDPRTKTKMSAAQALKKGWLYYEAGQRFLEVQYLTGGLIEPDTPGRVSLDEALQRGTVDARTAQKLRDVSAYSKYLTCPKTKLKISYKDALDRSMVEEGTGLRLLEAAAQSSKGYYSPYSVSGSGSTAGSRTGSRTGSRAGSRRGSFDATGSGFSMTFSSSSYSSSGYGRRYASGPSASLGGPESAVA

T3: Dys WW-ZZ, WW-ZZ domain (A3041–M3356) of human dystrophin (human, UniProt P11532 3041-3356)
T3 sequence (looked up): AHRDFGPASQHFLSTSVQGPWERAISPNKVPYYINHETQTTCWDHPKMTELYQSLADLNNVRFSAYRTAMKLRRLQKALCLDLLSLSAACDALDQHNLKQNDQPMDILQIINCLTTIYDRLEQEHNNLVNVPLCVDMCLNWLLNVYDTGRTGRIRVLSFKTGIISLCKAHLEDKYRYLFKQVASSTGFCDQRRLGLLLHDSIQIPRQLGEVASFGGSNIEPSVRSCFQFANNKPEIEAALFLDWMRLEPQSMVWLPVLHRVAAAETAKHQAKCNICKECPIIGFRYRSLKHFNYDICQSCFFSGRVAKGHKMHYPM

T4: Utr WW-ZZ (A2798–M3113) (human, UniProt P46939 2798-3113)
T4 sequence (looked up): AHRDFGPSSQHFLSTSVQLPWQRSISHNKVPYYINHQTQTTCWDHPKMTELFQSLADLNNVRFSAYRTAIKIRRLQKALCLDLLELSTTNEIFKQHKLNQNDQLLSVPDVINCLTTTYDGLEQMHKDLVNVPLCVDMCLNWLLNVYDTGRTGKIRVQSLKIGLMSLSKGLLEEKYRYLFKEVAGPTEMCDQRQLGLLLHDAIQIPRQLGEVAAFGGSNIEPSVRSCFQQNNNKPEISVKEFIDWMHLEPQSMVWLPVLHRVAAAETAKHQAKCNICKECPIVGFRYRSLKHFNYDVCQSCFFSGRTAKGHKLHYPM


Assays:
Ple E12–24 (M546–E1128) = target: T1, Ple E12–24 (M546–E1128); assay: far-Western, overlay or dot blot
Ple R4–C (L3850–A4687) = target: T2, Ple R4–C (L3850–A4687); assay: far-Western, overlay or dot blot
[1] = target: T3, Dys WW-ZZ, WW-ZZ domain (A3041–M3356) …; assay: far-Western, overlay or dot blot
Utr WW-ZZ (A2798–M3113) = target: T4, Utr WW-ZZ (A2798–M3113); assay: microtiter plate-binding assay

binding result (Ple E12–24 (M546–E1128)) | binding result (Ple R4–C (L3850–A4687)) | binding result [1] | binding result (Utr WW-ZZ (A2798–M3113)) | Binder
binds | binds | binds |  | βDGcyt (L765–P895), cytoplasmic domain of human β-dystroglycan (domain or fragment, UniProt Q14118 765-895, looked up) LIAGIIAMICYRKKRKGKLTLEDQATFIKKGVPIIFADELDDSKPPPSSSMPLILQEEKAPLPPPEYPNQSVPETTPLNQDTMGEYTPLRDEDPNAPPYQPPPPFTAPMEGKGSRPKNMTPYRSPPPYVPP
 |  |  | binds | Eu3+-labeled version of the full-length cytoplasmic domain of βDG (βDGcyt) (domain or fragment, human, UniProt Q14118 765-895, looked up, Eu3+ label) LIAGIIAMICYRKKRKGKLTLEDQATFIKKGVPIIFADELDDSKPPPSSSMPLILQEEKAPLPPPEYPNQSVPETTPLNQDTMGEYTPLRDEDPNAPPYQPPPPFTAPMEGKGSRPKNMTPYRSPPPYVPP
binds |  |  |  | βDGcytΔDBS (L765–D857), β-dystroglycan cytoplasmic fragment lacking the dystrophin-binding site (domain or fragment, human, UniProt Q14118 765-857, looked up) LIAGIIAMICYRKKRKGKLTLEDQATFIKKGVPIIFADELDDSKPPPSSSMPLILQEEKAPLPPPEYPNQSVPETTPLNQDTMGEYTPLRDED

Source: PMC2064082 (The Journal of Cell Biology, 2007)
